Measured values published in the supplement of paper PMC5998384.

Legend:
HeLa Kyoto [1] = test: solubility in G1/S (NP-40 vs SDS abundance) (log2 ratio); higher = more soluble; conditions: cell cycle stage: G1/S
HeLa Kyoto [2] = test: solubility change mitosis vs G1/S (difference of NP-40 vs SDS log2 ratios) (log2 ratio difference); higher = more soluble in mitosis
HeLa Kyoto [3] = test: melting temperature (median over replicates), in situ; higher = more thermally stable
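Throughout, for melting temperature (median over replicates), in situ: HeLa Kyoto cells synchronized by double thymidine or nocodazole block, proteins quantified by TMT10plex mass spectrometry, three independent biological replicates.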
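Throughout, for solubility change mitosis vs G1/S (difference of NP-40 vs SDS log2 ratios): synchronized HeLa Kyoto cells (double thymidine block for G1/S, nocodazole release for mitosis), protein amounts in NP-40 versus SDS lysates quantified by mass spectrometry, three biological replicates.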
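Throughout, for solubility in G1/S (NP-40 vs SDS abundance): HeLa Kyoto cells arrested at G1/S by double thymidine block, proteins quantified by TMT10plex mass spectrometry in mild NP-40 versus SDS extracts, three biological replicates.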

Sequence	solubility in G1/S (log2) (HeLa Kyoto [1])	solubility change mitosis (log2) (HeLa Kyoto [2])	melting temperature (HeLa Kyoto [3]; cell cycle stage: G1/S) [°C]	melting temperature (HeLa Kyoto [3]; cell cycle stage: mitosis) [°C]
MEGGFGSDFGGSGSGKLDPGLIMEQVKVQIAVANAQELLQRMTDKCFRKCIGKPGGSLDNSEQKCIAMCMDRYMDAWNTVSRAYNSRLQRERANM [TIMM13]	-0.594	0.337	53.8	
MRCCHICKLPGRVMGIRVLRLSLVVILVLLLVAGALTALLPSVKEDKMLMLRREIKSQGKSTMDSFTLIMQTYNRTDLLLKLLNHYQAVPNLHKVIVVWNNIGEKAPDELWNSLGPHPIPVIFKQQTANRMRNRLQVFPELETNAVLMVDDDTLISTPDLVFAFSVWQQFPDQIVGFVPRKHVSTSSGIYSYGSFEMQAPGSGNGDQYSMVLIGASFFNSKYLELFQRQPAAVHALIDDTQNCDDIAMNFIIAKHIGKTSGIFVKPVNMDNLEKETNSGYSGMWHRAEHALQRSYCINKLVNIYDSMPLRYSNIMISQFGFPYANYKRKI [EXTL2]	0.132	-0.23	56.7	58.5
MAAGKFASLPRNMPVNHQFPLASSMDLLSSRSPLAEHRPDAYQDVSIHGTLPRKKKGPPPIRSCDDFSHMGTLPHSKSPRQNSPVTQDGIQESPWQDRHGETFTFRDPHLLDPTVEYVKFSKERHIMDRTPEKLKKELEEELLLSSEDLRSHAWYHGRIPRQVSENLVQRDGDFLVRDSLSSPGNFVLTCQWKNLAQHFKINRTVLRLSEAYSRVQYQFEMESFDSIPGLVRCYVGNRRPISQQSGAIIFQPINRTVPLRCLEEHYGTSPGQAREGSLTKGRPDVAKRLSLTMGGVQAREQNLPRGNLLRNKEKSGSQPACLDHMQDRRALSLKAHQSESYLPIGCKLPPQSSGVDTSPCPNSPVFRTGSEPALSPAVVRRVSSDARAGEALRGSDSQLCPKPPPKPCKVPFLKVPSSPSAWLNSEANYCELNPAFATGCGRGAKLPSCAQGSHTELLTAKQNEAPGPRNSGVNYLILDDDDRERPWEPAAAQMEKGQWDKGEFVTPLLETVSSFRPNEFESKFLPPENKPLETAMLKRAKELFTNNDPKVIAQHVLSMDCRVARILGVSEEMRRNMGVSSGLELITLPHGHQLRLDIIERHNTMAIGIAVDILGCTGTLEDRAATLSKIIQVAVELKDSMGDLYSFSALMKALEMPQITRLEKTWTALRHQYTQTAILYEKQLKPFSKLLHEGRESTCVPPNNVSVPLLMPLVTLMERQAVTFEGTDMWEKNDQSCEIMLNHLATARFMAEAADSYRMNAERILAGFQPDEEMNEICKTEFQMRLLWGSKGAQVNQTERYEKFNQILTALSRKLEPPPVKQAEL [BCAR3]	0.00142	0.0356	46.3	50.1
MSSPMPDCTSKCRSLKHALDVLSVVTKGSENQIKAFLSSHCYNAATIKDVFGRNALHLVSSCGKKGVLDWLIQKGVDLLVKDKESGWTALHRSIFYGHIDCVWSLLKHGVSLYIQDKEGLSALDLVMKDRPTHVVFKNTDPTDVYTWGDNTNFTLGHGSQNSKHHPELVDLFSRSGIYIKQVVLCKFHSVFLSQKGQVYTCGHGPGGRLGHGDEQTCLVPRLVEGLNGHNCSQVAAAKDHTVVLTEDGCVYTFGLNIFHQLGIIPPPSSCNVPRQIQAKYLKGRTIIGVAAGRFHTVLWTREAVYTMGLNGGQLGCLLDPNGEKCVTAPRQVSALHHKDIALSLVAASDGATVCVTTRGDIYLLADYQCKKMASKQLNLKKVLVSGGHMEYKVDPEHLKENGGQKICILAMDGAGRVFCWRSVNSSLKQCRWAYPRQVFISDIALNRNEILFVTQDGEGFRGRWFEEKRKSSEKKEILSNLHNSSSDVSYVSDINSVYERIRLEKLTFAHRAVSVSTDPSGCNFAILQSDPKTSLYEIPAVSSSSFFEEFGKLLREADEMDSIHDVTFQVGNRLFPAHKYILAVHSDFFQKLFLSDGNTSEFTDIYQKDEDSAGCHLFVVEKVHPDMFEYLLQFIYTDTCDFLTHGFKPRIHLNKNPEEYQGTLNSHLNKVNFHEDDNQKSAFEVYKSNQAQTVSERQKSKPKSCKKGKNIREDDPVRMLQTVAKKFDFSNLSSRLDGVRFENEKINVIAKNTGNKLKLSQKKCSFLCDVTMKSVDGKEFPCHKCVLCARLEYFHSMLSSSWIEASSCAALEMPIHSDILKVILDYLYTDEAVVIKESQNVDFICSVLVVADQLLITRLKEICEVALTEKLTLKNAAMLLEFAAMYSAKQLKLSCLQFIGLNMAALLEARSLDVLSDGVLKDLSEFYRKMIPAMDRRVITPYQDGPDISYLEVEDGDIFLKEEINMEQNHSETMFKKAKTKAKKKPRKRSDSSGGYNLSDIIQSPSSTGLLKSGKTNSVESLPELLTSDSEGSYAGVGSPRDLQSPDFTTGFHSDKIEAKVKPYVNGTSPVYSREDLKPWEKSPILKISAPQPIPSNRIDTTSSASWVAGSFSPVSPPVVDLRTIMEIEESRQKCGATPKSHLGKTVSHGVKLSQKQRKMIALTTKENNSGMNSMETVLFTPSKAPKPVNAWASSLHSVSSKSFRDFLLEEKKSVTSHSSGDHVKKVSFKGIENSQAPKIVRCSTHGTPGPEGNHISDLPLLDSPNPWLSSSVTAPSMVAPVTFASIVEEELQQEAALIRSREKPLALIQIEEHAIQDLLVFYEAFGNPEEFVIVERTPQGPLAVPMWNKHGC [IBTK]	-0.61	0.351	52.7	50.8
MMSIKAFTLVSAVERELLMGDKERVNIECVECCGRDLYVGTNDCFVYHFLLEERPVPAGPATFTATKQLQRHLGFKKPVNELRAASALNRLLVLCDNSISLVNMLNLEPVPSGARIKGAATFALNENPVSGDPFCVEVCIISVKRRTIQMFLVYEDRVQIVKEVSTAEQPLAVAVDGHFLCLALTTQYIIHNYSTGVSQDLFPYCSEERPPIVKRIGRQEFLLAGPGGLGMFATVAGISQRAPVHWSENVIGAAVSFPYVIALDDEFITVHSMLDQQQKQTLPFKEGHILQDFEGRVIVATSKGVYILVPLPLEKQIQDLLASRRVEEALVLAKGARRNIPKEKFQVMYRRILQQAGFIQFAQLQFLEAKELFRSGQLDVRELISLYPFLLPTSSSFTRSHPPLHEYADLNQLTQGDQEKMAKCKRFLMSYLNEVRSTEVANGYKEDIDTALLKLYAEADHDSLLDLLVTENFCLLTDSAAWLEKHKKYFALGLLYHYNNQDAAAVQLWVNIVNGDVQDSTRSDLYEYIVDFLTYCLDEELVWAYADWVLQKSEEVGVQVFTKRPLDEQQKNSFNPDDIINCLKKYPKALVKYLEHLVIDKRLQKEEYHTHLAVLYLEEVLLQRASASGKGAEATETQAKLRRLLQKSDLYRVHFLLERLQGAGLPMESAILHGKLGEHEKALHILVHELQDFAAAEDYCLWCSEGRDPPHRQQLFHTLLAIYLHAGPTAHELAVAAVDLLNRHATEFDAAQVLQMLPDTWSVQLLCPFLMGAMRDSIHARRTMQVALGLARSENLIYTYDKMKLKGSSIQLSDKKLCQICQNPFCEPVFVRYPNGGLVHTHCAASRHTNPSSSSPGTRT [TGFBRAP1]	-0.0452	-0.0966		51.1
MTNEEPLPKKVRLSETDFKVMARDELILRWKQYEAYVQALEGKYTDLNSNDVTGLRESEEKLKQQQQESARRENILVMRLATKEQEMQECTTQIQYLKQVQQPSVAQLRSTMVDPAINLFFLKMKGELEQTKDKLEQAQNELSAWKFTPDSQTGKKLMAKCRMLIQENQELGRQLSQGRIAQLEAELALQKKYSEELKSSQDELNDFIIQLDEEVEGMQSTILVLQQQLKETRQQLAQYQQQQSQASAPSTSRTTASEPVEQSEATSKDCSRLTNGPSNGSSSRQRTSGSGFHREGNTTEDDFPSSPGNGNKSSNSSEERTGRGGSGYVNQLSAGYESVDSPTGSENSLTHQSNDTDSSHDPQEEKAVSGKGNRTVGSRHVQNGLDSSVNVQGSVL [WTAP]	-0.0275	0.772	48.9	50.3
